Substitutions are numbered along the chain they refer to. In names and notes the source's numbering stands.
Experiments:
[1] = target: T1, TCPTP (full-length TCPTP, residues 1-387, TC45 isoform) (human, UniProt P17706-2 1-387); assay: cell-based or functional assay
T1 sequence (looked up): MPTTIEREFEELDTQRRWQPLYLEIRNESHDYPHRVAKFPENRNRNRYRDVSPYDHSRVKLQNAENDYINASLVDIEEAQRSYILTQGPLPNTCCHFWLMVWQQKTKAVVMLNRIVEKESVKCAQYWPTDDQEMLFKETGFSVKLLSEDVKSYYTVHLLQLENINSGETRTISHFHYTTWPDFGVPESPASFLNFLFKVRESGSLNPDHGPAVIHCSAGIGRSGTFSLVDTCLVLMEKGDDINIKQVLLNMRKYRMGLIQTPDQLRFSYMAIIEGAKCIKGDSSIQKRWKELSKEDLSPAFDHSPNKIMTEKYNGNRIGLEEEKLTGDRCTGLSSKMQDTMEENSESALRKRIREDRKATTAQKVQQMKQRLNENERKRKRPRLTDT

[2] = test system: pEGFR peptide-1, derived from the cytoplasmic tail of EGFR; assay: Phosphatase kinetic analysis (Michaelis-Menten) of TCPTP constructs, pEGFR peptide-1 substrate; assay type: biochemical; details: mean ± SE, n = 9 (TCPTPCAT, TCPTP) or 12 (TCPTPC-term, TCPTPL1)
Procedure: (§1) The rate of dephosphorylation of TCPTP and TCPTPCAT (residue 1–314) against 2 phosphotyrosine peptides derived from EGFR was monitored either with or without ITGA1 peptide (ITGA1_FCT & ITGA1_TR) in assay buffer (25 mM Hepes pH 7.4, 50 mM NaCl and 1 mM DTT). Lyophilized powder of all synthetic peptides was dissolved in assay buffer without DTT (phosphopeptides, 5 mM; ITGA1 peptides, 2 mM). For the kinetic analysis, the concentration of the enzyme was fixed at 1 nM while the substrate (phosphopeptides) concentration was varied from 2.5 μM to 160 μM in a total reaction volume of 200 μl. Effect of ITGA1 peptide on TCPTP & TCPTPCAT kinetics were assessed in saturated condition by adding an excess amount of ITGA1 peptide to the reaction mixture (ITGA1_TR = 1 μM; ITGA1_FCT = 25 μM). The reaction was incubated at 30 °C for 30 min and stopped by the addition of 30 μl phosphate reagent (phosphate colorimetric assay kit; Bio Vision) following the manufacturer’s instructions. Data were normalized and fitted using a nonlinear curve, and kinetics parameters (KM and kcat) were calculated from the Michaelis-Menten equation using Graph Pad Prism 9.0. All data points in the enzyme kinetics experiment were measured in triplicate, and the experiments were repeated three times.

[3] = test system: pEGFR peptide-2, derived from the EGFR's kinase domain activation loop; assay: Phosphatase kinetic analysis (Michaelis-Menten) of TCPTP constructs, pEGFR peptide-2 substrate; assay type: biochemical; details: mean ± SE, n = 9
Procedure: as §1
Supplementary Table 2: Enzymatic activity assay (Michaelis-Menten analysis); substrate pEGFR peptide-2, derived from the EGFR’s kinase domain activation loop. Calculated kinetic parameter are presented as the mean of nine independent reactions (n=9; mean ± SE). Source data are provided as a Source Data file. kcat (s-1) Km (µM) kcat/Km (µM -1s-1)

[4] = DiFMUP assay of TCPTP, TCPTPCAT, PTP1B and PTP1BCAT; assay type: biochemical; details: PTP1B (1–400) vs PTP1BCAT (1–321), DiFMUP, n = 6
Procedure: Activity of TCPTP, TCPTPCAT (residue 1–314) either with or without ITGA1 peptides (ITGA1_TR; 1:50 molar ratio, ITGA1_FCT; 1:1000 molar ratio), PTP1B (residue 1–400) and PTP1BCAT (residue 1–321) were assessed in assay buffer (25 mM Hepes pH 7.4, 50 mM NaCl, and 1 mM DTT). The assay was performed in black polystyrene flat bottom 96-well plate. The concentration of DiFMUP was fixed at 10 μM and protein concentration at 2.5 nM in total reaction volume of 100 μl. The emitted fluorescent signal at 455 nm was continuously recorded for 25 min using a Tecan Infinite M1000 pro microplate reader (Tecan i-control, 2.0.10.0).

[5] = target: T2, TCPTPCAT (TCPTP catalytic domain, residues 1-302) (human, UniProt P17706-2 1-302); assay: NMR titration; 15N-labelled tail observed (2D [1H,15N] HSQC, 0.1 mM), unlabelled TCPTPCAT added in increasing amounts (1:0 to 1:20 tail:CAT); NMR buffer 20 mM HEPES pH 6.8, 150 mM NaCl, 0.5 mM TCEP, 90% H2O/10% D2O; 298 K or 283 K; details: both partners purified
T2 construct: T cell protein tyrosine phosphatase (TCPTP, PTPN2), human, TC45 isoform, catalytic domain residues 1-302, sub-cloned into pRP1B for all NMR experiments; (2H,15N)-labelled where it was the observed species, unlabelled where it was titrated into the labelled tail; also called T-Cell Protein Tyrosine Phosphatase catalytic domain; PTPN2 catalytic domain; source: E. coli BL21 (DE3) RIL, purified …
T2 sequence (looked up): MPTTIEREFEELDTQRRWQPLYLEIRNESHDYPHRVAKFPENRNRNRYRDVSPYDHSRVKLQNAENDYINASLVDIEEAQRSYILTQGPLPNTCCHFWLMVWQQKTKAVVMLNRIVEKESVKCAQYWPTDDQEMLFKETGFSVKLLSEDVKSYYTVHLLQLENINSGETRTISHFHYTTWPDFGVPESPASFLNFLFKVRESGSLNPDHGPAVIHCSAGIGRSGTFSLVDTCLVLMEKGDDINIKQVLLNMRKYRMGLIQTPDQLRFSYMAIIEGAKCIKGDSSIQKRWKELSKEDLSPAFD

[6] = target: T3, TCPTPCAT (Homo sapiens, UniProt P17706); assay: NMR titration (2D HSQC/TROSY) binding to TCPTPCAT
T3 construct: TCPTP and TCPTPCAT (residue 1–314) against 2 phosphotyrosine peptides derived from EGFR; His6 (N, cleaved yes); made in house; host or cells: E. coli BL21 (DE3) RIL
T3 sequence (P17706 1-314 isoform P17706-2): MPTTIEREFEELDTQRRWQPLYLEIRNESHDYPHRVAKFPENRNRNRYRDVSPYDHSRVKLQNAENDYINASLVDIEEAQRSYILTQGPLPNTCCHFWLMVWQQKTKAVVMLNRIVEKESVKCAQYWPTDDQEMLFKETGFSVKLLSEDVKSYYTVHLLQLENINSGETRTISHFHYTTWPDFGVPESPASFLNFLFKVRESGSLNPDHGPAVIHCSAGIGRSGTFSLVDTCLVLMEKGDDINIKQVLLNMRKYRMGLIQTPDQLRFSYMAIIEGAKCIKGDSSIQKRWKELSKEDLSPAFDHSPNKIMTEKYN
From the text: Polymerase chain reaction (PCR) fragments of TCPTP (residues: 1–387) TCPTPCAT (catalytic domain, residues: 1–288, 1–302 or 1–314), TCPTPTail (C-terminal tail, residues: 289–387 or 303–387) were amplified from full-length human TCPTP (TC45 isoform). TCPTP, TCPTPCAT (residues: 1–288, 1–314), and TCPTPTail (residues: 289–387) fragments were cloned into pMCSG7 including a N-terminal His6-tag using ligation-independent cloning. For all NMR experiments, the PCR fragments of TCPTP, TCPTPCAT (residues: 1–302) and TCPTPTail (residue: 303–387) were sub-cloned into pRP1B as previously described.
NMR data were collected on either Bruker NEO 600 MHz or 800 MHz spectrometers equipped with TCI HCN z-gradient cryoprobes at 298 K or 283 K. NMR measurements of TCPTP’s variant construct were recorded using (^1H,^15N)-, (^2H,^15N)-, (^1H,^15N,^13C), or (^2H,^15N,^13C)-labeled protein at a final concentration of 0.6 mM for backbone assignment or 0.1 mM for titration in NMR buffer and 90% H2O/10% D2O. The sequence-specific backbone assignments of TCPTP (residues 1–387), TCPTPCAT (residues 1–302), TCPTPTail (residues 303–387) and other variants were achieved using 3D triple resonance experiments including […], 3D HNCA, 3D HN(CO)CA, 3D HN(CO)CACB, and 3D HNCACB either as HSQC or TROSY variations. All NMR data were processed using TopSpin 4.0.5[44] and analyzed using either CARA (http://www.cara.nmr.ch) and/or CcpNMR[45].

[7] = pEGFR peptide-2 2.5-160 μM, 1 nM enzyme, pH 7.4, 30 °C 30 min

B1: ITGA1_FCT (ITGA1 full cytoplasmic tail) (peptide)
peptide: KIGFFKRPLKKKMEK
rate of dephosphorylation (EGFR phosphopeptides, DiFMUP) by TCPTP saturated with excess ITGA1 peptide (ITGA1_FCT 25 μM), against TCPTP alone [1]: ~3 fold

B2: TCPTPCAT: TCPTP catalytic domain, residues 1–288, 1–302 (NMR) or 1–314 (activity, SAXS) (protein, UniProt P17706 1-314, looked up, fragment)
chain: T3 sequence (P17706 1-314 isoform P17706-2)
modifications: catalytic domain
kcat ([2]; pEGFR peptide-1 2.5-160 μM, 1 nM enzyme, 25 mM Hepes pH 7.4, 50 mM NaCl, 1 mM DTT, 30 °C 30 min): 34.0 ± 0.9 s⁻¹ | Km ([2]; pEGFR peptide-1 2.5-160 μM, 1 nM enzyme, pH 7.4, 30 °C 30 min): 24.8 ± 2 µM | kcat/Km ([2]; pEGFR peptide-1, pH 7.4, 30 °C): 1.4e+06 ± 100000 M⁻¹ s⁻¹ | Km [3, 7]: 34 ± 2.2 µM | kcat [3, 7]: 36.3 ± 0.9 s⁻¹ | kcat/Km ([3]; pEGFR peptide-2): 1.1 ± 0.1 µM -1s-1

B3: PTP1B: PTP1B (residue 1–400) (protein, UniProt P18031 1-400, looked up, fragment)
chain: MEMEKEFEQIDKSGSWAAIYQDIRHEASDFPCRVAKLPKNKNRNRYRDVSPFDHSRIKLHQEDNDYINASLIKMEEAQRSYILTQGPLPNTCGHFWEMVWEQKSRGVVMLNRVMEKGSLKCAQYWPQKEEKEMIFEDTNLKLTLISEDIKSYYTVRQLELENLTTQETREILHFHYTTWPDFGVPESPASFLNFLFKVRESGSLSPEHGPVVVHCSAGIGRSGTFCLADTCLLLMDKRKDPSSVDIKKVLLEMRKFRMGLIQTADQLRFSYLAVIEGAKFIMGDSSVQDQWKELSHEDLEPPPEHIPPPPRPPKRILEPHNGKCREFFPNHQWVKEETQEDKDCPIKEEKGSPLNAAPYGIESMSQDTEVRSRVVGGSLRGAQAASPAKGEPSLPEKDED
autoregulatory behavior of the C-terminal tail (activity vs catalytic domain) [4]: not observed

B4: ITGA1_TR (ITGA1 tandem repeat; 2x ITGA1_TCT) (peptide)
peptide: RPLKKKMEKRPLKKKMEK
rate of dephosphorylation (EGFR phosphopeptides, DiFMUP) by TCPTP saturated with excess ITGA1 peptide (ITGA1_TR 1 μM), against TCPTP alone [1]: ~3 fold

B5: TCPTP_(Tail) (C-terminal tail, residues 303-387) (domain or fragment, human, UniProt P17706-2 303-387, looked up)
chain: HSPNKIMTEKYNGNRIGLEEEKLTGDRCTGLSSKMQDTMEENSESALRKRIREDRKATTAQKVQQMKQRLNENERKRKRPRLTDT
notes: T cell protein tyrosine phosphatase (TCPTP, PTPN2), human, TC45 isoform, C-terminal tail residues 303-387, sub-cloned into pRP1B for all NMR experiments; also called TCPTP C-terminal tail; TCPTP IDR; source: E. coli BL21 (DE3) RIL, purified (His-trap, TEV cleavage, subtraction, heat step 80 °C 10 min, SEC)
binding result [5]: binds

B6: TCPTPTailRK: TCPTPTail with N373R/E374K/N375R/E376K (protein)
chain: B5 chain with N71R, E72K, N73R, E74K
modifications: left off: His6, end not stated, cleaved
notes: TCPTPTail with N373R/E374K/N375R/E376K
NMR titration: interaction strength vs TCPTPTail ([6]; 2D [1H,15N] HSQC, reduction in peak intensities at lower ratio (1:10)): tighter interaction | NMR titration: CSPs in (2H,15N)-labeled TCPTPCAT ([6]; 2D [1H,15N] TROSY, unlabeled ligand added): Small, but clear chemical shift perturbations (CSPs) were readily identified

B7: TCPTP_(TailRK) (N373R/E374K/N375R/E376K) (domain or fragment, human, UniProt P17706-2 303-387, looked up)
chain: B5 chain with N71R, E72K, N73R, E74K
notes: T cell protein tyrosine phosphatase (TCPTP, PTPN2), human, TC45 isoform, C-terminal tail with 373NENE376 changed to 373RKRK376; 15N-labelled when observed; also called TCPTP_(TaiRK); source: E. coli BL21 (DE3) RIL, purified (His-trap, TEV cleavage, subtraction, heat step 80 °C 10 min, SEC)
binding result [5]: binds

— paper PMC8748766, “The catalytic activity of TCPTP is auto-regulated by its intrinsically disordered tail and activated by Integrin alpha-1” (Nature Communications, 2022)
